Test results from a protein production outcome set (Wang et al. 2014).

Assay: label from the status in PepcDB records
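Note: failed if final PepcDB status was selected cloned or expressed and not failed if soluble or beyond.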

Sequence	protein production
MSAKKLFIQTLGCAMNVRDSEHMIAELTQKENYALTEDIKEADLILINTCSVREKPVHKLFSEVGGFEKVKKEGAKIGVCGCTASHLGNEIFKRAPYVDFVLGARNISKITQAIKTPKFMGVDIDYDESEFAFADFRNSIYKSYINISIGCDKHCTYCIVPHTRGDEISIPFNIIYKEAQKAIEKGAKEIFLLGQNVNNYGKRFRNEHKKMDFSDLLEELSTIEGLERIRFTSPHPLHMDDKFLEVFANNPKVCKSMHMPLQSGSSEILKAMKRGYTKEWYLNRALKLRELCPNVSISTDIIVAFPGESEKDFEETVDVLEKVRFEQIFSFKYSKRPLTKAATMPNQIDEEIASRRLSTLQNRHSEILDKIVKKQENKTFKVLFEELRAGNSIAGRTDNNFLVQVEGSEELLGQFKEVKITNAKRMVLYGEIVLEHHHHHH	failed
MSALRILARFVSTRTLRIRPILEIPARCKYTQHQGVKGIRNRKSFFEAQIQAGQQGEEDADLERTANSDLADMRFLDDRAYDEVAGGAMRITRDIASSQQVLILQPYVKWAAKRQNAPVDVRPEDQLAEATALIHSLPNWQVARALKVPLESLEKKTLFGSGKLVELKELVAELRQERHLTCLFVSKGTLSFAQKRFLEAEFRLPVMDRYSVVIQILRLHATSAEAKLQVAMAELPYIWAQAKDASVTQTRRQGYALTDLQKEILRTRERKLRAELDRVRRQRQLLRQKRKQQNYPIVAVVGYTNAGKTSLIKALTVEDALQPRNQLFATLDVTAHAGCLPCNLEVIYMDTVGFMSDLPTGLFECFVATLEDAMLADVIVHVQDLSHPCHAAQRSHVEATLRSLAFNVAGGDSTASQLPPIINVYNKCDLVSQEAQSSADPVHHISARAQTGLEPLLDDIEQQILTATGRRKLQMRVPSGGPEMAWLYKNAAVVETTADAENPERLMMHVVISQRTLDQFKRQFCR	failed
MSALSSEGFFLEKCTHFFSDKKVVFFIATLCCLLWGSAYPAIKNGYELFHIADDDIPGKLVFAGYRFAFAGLLLALAVLSGRSIGRFQRGQLAQLTILGTFQTSLQYVFFYIGLAYTTGVKGSIMNATSTFFSVLLAHYLYQNDKLNINKIIGCILGFAGVMAVNINSNGMNIGFTLLGDGFVVIAAFILSASTIYGKRISQTMDPTVMTGYQLAIGGIILTISGYCTGGSLIIPDWRAVLMLGYLILLSSAAFSLWSQLLKYNRVGMVAPFNFLIPVSGTLLSALFLNESILEWKYFFALILVCSGIWLVNRVVKTRSGK	failed
MSAPADRSFAIERIFNAPVERVFRLWTDPLLVAQWWGIRDCTIPLCVLDVRVGGRWRIDMLTAGGALYRNQGSYLEVVENVRLSYRDEPDPEIREWAGKPPGRSRHTVSFTASGARTHVHFEVTLATAADRERLLALGMRGGWMQSFDRLEQLIGKGADHAG	failed
MSAQDTQSLGVWSDCLTLLRLELLRAVPKSAVGLGCGKKIHANGILDEIFFPLDISIASAYVKTKMNFNPPTLQHLAGRSLMKDEALAISALQDLPMQLFPPLFKDAFTSKQSNILKQMVAAWPFPCLPVGGLMETPPHLETLKAVLDGLDLLMKQKVRLRMWKLQVLDLRDAHHDFWKGYTGIQDLVSSLDVIGKTQPVGNHPIIGGKQVMTVLMNLSFTSRHPSKYIKYLCHWAKQRKNVIQVICQKLEFGAIPAYDSLNVLGVFDLGSIQELEINKCWDMCTLALLAPGLGQMKNLQKLLLKEICITVDWPWDQKTEGLCVKQIFFQFSKLRNLQHLYLNDVYFLNEHLDQVLRCLESPLETLAITHCMLSQSDMKYLSQCPSIHQLKHLDLSGVTFINLSHPFLRSLLERVTATLKTLKLNGCMIMDFQIRALLPVLSQCSQLTEVNFEENSLSMDSLKKLLQHTANLTHLTLEKYPAPDEVYDDTGNVIPHRFIQLCSELMDTLKILRQPNHVYFVSKKCLDCHKYFIYNLEAMLCSCWQ	failed
MSASHFLTIIKPASLAVLLLLAAGFWVLHGFIMPIAWAVVLAFTVWPWYEHVYQRAPCWMRGGWLPLAMTLLMMVLLMVPATFGVLVLGHEVQMLHRLLIKVQSSGIGAPDWLIQLPWVGGWIKETWSETFGNPETIKNALNALGMGTVFSYTRDLAAQVLHRFMSGFVTLLALFFIFRDGHGLGRQILDRSVRLFGSAGARYARHAVTAVRGTVNGMLLVGIGKGVVLGLGYWAVGLSQPVLLGTLTAVVALVPFAAKLVFGAASIYLIVQGHAMAGIVLVVYGFIITLIADNYVRPTLIGGAANIPFLPTLLGIFGGVEAMGFVGLFIGPTVMAILISLWRDWNDETRLPSA	failed
MSATGIKRSNLNTRPVQRDASAKQTAIKGPYGKSPGCTTSCGLRLPRKTEVTAAKLIKHLGCKFAKGLRLVVMRKKKRSPPSKVSSFSGRSQPPIIPINNDSHRSEAIEDCIQFINSSSSFTRSNSTS	failed
MSATRHRSDGHEEIVALDALPLSAAIRRRELSCREVMQAYLAQIERFNPRVNAIVSLQAESRLLTQADERDRQLARGEWLGWMHGMPQAIKDLAATSGIPTTLGSPLFAGQVPEHDAIVVERVKSSGAIVIGKTNVPEFGLGSQTYNPLFGTTRNAYDPARIAGGSSGGAAVALALRMLPVADGSDMMGSLRNPAAYNNVYGFRPSQGRVPHGPQAELFVQQLATEGPMGRSVADLARLLATQAGYDPRCPLSLRDDPRRFADDLGRDFRGARLGWLGDYAGYLPMEEGVLELCEAALGDFAELGCDVEACLPDYPLERLWRTWLVHRQWLVQGSLGELYADPARRVRLKPEAQWEVESGLGLGAAEVYRASLDRSDWYRALARLFERYDFLLLPSAQVFPFDAETAWPRQVAGRPMDTYHRWMEVVIGPTLAGLPAISVPIGFGAAGLPMGLQIIGPAQADLAVLQLAHAHEGLTRWVSRRPPAMLEAPGGI	failed
MSAVMARRIAVVGGGVAGLMAAWWASNYGYDVVVYEADLSSLTATRVSAGIIDPTIDISLAPVALETLSLLKRLGLGLESRLLWLHERGSCRRLERLLSDKGIIERSVAGEESIRLGRYTVNLGYGEELHVINTIIVDTGEFYSLASSASNVDIVEDSVEYVGCGSVGLKRGGSREFDAIIVAAGPWTGFISGLQALSNMLRVYRCEALIIRAGGGPFAVVDDILDFYLSIHASGDGVLGNGCCVEIASPLDGYRYSGDVLDAVISRSIERLEGLGEAELITPVSAPCVVGRDARPVLGMLPGCSRVYLLAGLDGVGVTLAPVLARLVVESIATGSQEPIPPEMAASRPTSSSESVVKEPVEEC	failed
MSCYSDSITPDSFSGIVFALEGVSRSIVLINGPSGCKYYHSAVSDNQTLRQYEFDPFNYSEKWYFGQPRVPCTYLDSDDYIYGSTDKLTEALEFLRDNAPFDLLCIVNSPGAALIGDDLRGIAGRIIKEKSVVIIETPDFSRDICTGYETAAAALLDSLPLNSAARSQPNTVNILGLSIFHKYFAGDILELRRLLELCGVTVNCFLCADCDIDTIRRIPEAALNIVIHPEYGMKTARCLKERYGTPFYLCDGPPIGFSATEKFIGGICTALGCDSSLFRRESERARARAYAYISQVNSLTGLPKGVHFAVEGTYSELYAYTSFLVRYFGMIPEALSVLNEGSDCCKERLQALLNGLALPQALDRDLTETDSELVFASGNTIAKLKLRRHMFSGIEISLPSLGYIDVIPKTHIGLQGALMLTEQVLNGLAF	failed
MSDAQKFQLGTIGALSLSVVSSVSIVICNKALISTLGFTFATTLTSWHLLVTFCSLHVALWMKFFEHKPFDPRAVLGFGVLNVNFSTFLVIGKTSPVTYQVLGHLKTCLVLAFGYLLLKDAFSWRNILGILVAVIGMVLYSYYCTLETQQKATETSTQLPQMDENEKDPLVSAENGSGLISDNGVQKQDPVWNSNKDFQA	failed
MSDCSFIIVGGGGHARVVASTLRRLGETILGFTDPDEEATLGDGIEHLGRDKILTEKDPSKVALTMGMGSVRDTGHRAGLFTEQVENGFRFPTLIHPDAVLASEAKTKAGVQVMAGGVIQPGASLGENVIVNTNASVDHDCQIGAHSHVASGATLSGEVVLESQVHVGTGASIIQGVDVGKNSVVGAGAVVIEDVPPETVVIGVPAHPK	failed
MSDDPEDRMLGWDESVFRDEHVFEIDWLPETFKHRDTQMETLKYALRPAVRGSRPLNVIARGPPGTGKTTAVQILFDELTAQTDVKTVRVNCQMDSTRYAVFSRLFAEIFDYEPPSSGISFKKLFSQITDKLVEEDEVLVVALDDVNYLFYESEASDTLYSLLRAHEAHSGAKIGVICVSSDLELDTIDALDTRVQSVFRPEEVYFNPYGQAEIADILGERADRGFNEGVVGPTVLDRVAELTEEQGGDLRVGIDLLRRAGMNAEMRASRSVETEDVEAAYDKSKYVHLSRRLRELSDSETALVEVIAAHDGQQAGDIYDAFSEQTDLGYTRYSEIINKLDQLDIIDADYTNVEGRGRSRELTLNYDADAVLERL	failed
MSDEGPGTGPGNGLGEKGDTSGPEGSGGSGPQRRGGDNHGRGRGRGRGRGGGRPGAPGGSGSGPRHRDGVRRPQKRPSCIGCKGTHGGTGAGAGAGGAGAGGGGRGRGGSGGRGRGGSGGRRGRGRERARGGSRERARGRGRGRGEKRPRSPSSQSSSSGSPPRRPPPGRRPFFHPVGEADYFEYHQEGGPDGEPDVPPGAIEQGPADDPGEGPSTGPRGQGDGGRRKKGGWFGKHRGQGGSNPKFENIAEGLRALLARSHVERTTDEGTWVAGVFVYGGSKTSLYNLRRGTALAIPQCRLTPLSRLPFGMAPGPGPQPGPLRESIVCYFMVFLQTHIFAEVLKDAIKDLVMTKPAPTCNIRVTVCSFDDGVDLPPWFPPMVEGAAAEGDDGDDGDEGGDGDEGEEGQELEHHHHHH	failed
MSDEHRFSRLRPLSLGLLAPLAVLLTGCGGPNLIERLSIGNWGFWGTVIIVLDLVALVDLLGDGTRSTTSTVVWALLIVFAPVLGVILYFIFGRE	failed
MSDFLQTTHLIIILCFLQQFLCTRMDIVIWLTCTTVPLSRRGRIGLGGSVILHVSDIHCSLRRLEDIISSLPVKPSTVAATGDFECEKAAVAIVEWSRREGVPLVAVTGNLDHAGVRRVLRSAGVLMDGRVDRVGGLVFGGVGGMDPRTSMEMLLRSLESSGLTVDVLLTHHPPHGVLDTTFAGVRAGLHDLRSLVDSLKPRAHLFGHIHESPGIESIGGTVFVNPGPAYEGRYALVRILGSVVKAELYTA	failed
MSDFSNELHTQIQYSLIEKLSESERRYRELVDSLREIVFKCDRLGNLNFLNRAWTNTLGYGITDAIGSALSNFIDLDDQYLWSETLEKLQTGVEVCQKLRFYHQTGAIVWLELSAQPQSETEFSGSLINITDVYDELRLRKHAEGLLKQTNEELEARVEQRNIELIQANHDLKVTLDKLKYTQAQLVQTEKMSSLGQLVAGIAHEINNPVNFI	failed
MSDIESLGEAAGLFEEPEDFLPPPPKPHFAEYQRSHITKESKSDVKDIKLRLVGTSPLWGHLLWNAGIYTANHLDSHPELIKGKTVLELGAAAALPSVICALNGAQMVVSTDYPDPDLMQNIDYNIKSNVPEDFNNVSTEGYIWGNDYSPLLAHIEKIGNNNGKFDLIILSDLVFNHTEHHKLLQTTKDLLAEKGQALVVFSPHRPKLLEKDLEFFELAKNEFHLVPQLIEMVNWKPMFDEDEETIEVRSRVYAYYLTHEK	failed
MSDIISIKDIDLAKKKVFIRCDFNVPQDDFLNITDDRRIRSAIPTIRYCLDNGCSVILASHLGRPKEISSKYSLEPVAKRLARLLDKEIVMAKDVIGEDAKTKAMNLKAGEILLLENLRFEKGETKNDENLAKELASMVQVYINDAFGVCHRAHSSVEAITKFFDEKHKGAGFLLQKEIDFASNLIKHPARPFVAVVGGSKVSGKLQALTNLLPKVDKLIIGGGMAFTFLKALGYDIGNSLLEEELLEEANKILTKGKNLGVKIYLPVDVVAAPACSQDVPMKFVPAQEIPNGWMGLDIGPASVRLFKEVISDAQTIWWNGPMGVFEIDKFSKGSIKMSHYISEGHATSVVGGGDTADVVARAGDADEMTFISTGGGASLELIEGKELPGVKALRSKENE	not failed
MSDKGTDTKDKEKKAGKKKTASDRIEVRQSGVHGKGVYAIGQIAEGERVIEYKGEHISWKEALKRHPHDPNDPNHTFYFSLDDGDVIDAKFGGNRARWINHACDPNCEAREKKGRVFIHALRDIEPGEELFYDYGLVIDARYTKKLKQEYECRCGSPKCRGTMLAPKDKK	failed
